Experimental findings from article PMC12753105 are described below.

The target in assay [1] is SARS-CoV-2 N-protein N:G215C (reduced), full length (SARS-CoV-2) (UniProt P0DTC9). Nature of the assay: AUC.
Assay [2] has the same target. The assay can be described thus: mass photometry.
Assay [3] addresses SARS-CoV-2 N-protein N:G215C* (oxidized), full length (SARS-CoV-2) (UniProt P0DTC9). The assay can be described thus: mass photometry.
The target of assay [4] is SARS-CoV-2 N-protein N:R203K/G204R, full length (SARS-CoV-2) (UniProt P0DTC9). The assay can be described thus: mass photometry.
Assay [5] has as its target SARS-CoV-2 N-protein Nο (N:P13L/Δ31–33/R203K/G204R), full length (SARS-CoV-2) (UniProt P0DTC9). The assay can be described thus: mass photometry.

Turning to “SARS-CoV-2 N-protein N:G215C (reduced), full length (from UniProt P0DTC9 1-419) (natural protein)”, the Kd in assay [1] is 1000 nM. This substance also gave a best-fit effective RNP life-time (with SL7 RNA) in assay [2] of 231 s.
In the case of “SARS-CoV-2 N-protein N:G215C* (oxidized), full length (from UniProt P0DTC9 1-419) (natural protein)”, the best-fit effective RNP life-time (with SL7 RNA) in assay [3] was 41.8 s.
In assay [4], “SARS-CoV-2 N-protein N:R203K/G204R, full length (from UniProt P0DTC9 1-419) (natural protein)” displayed a best-fit effective RNP life-time (with SL7 RNA) of 54.6 s.
Turning to “SARS-CoV-2 N-protein Nο (N:P13L/Δ31–33/R203K/G204R), full length (from UniProt P0DTC9 1-419) (natural protein)”, the best-fit effective RNP life-time (with SL7 RNA) in assay [5] amounted to 58.5 s.

For orientation: Kd means a measure of binding affinity in units of concentration. Lower therefore signals higher affinity.
